US20230374534

Key:
[1] = biological target: His-CBF1 (histidine-tagged C-repeat-binding transcription factor 1), recombinant
[2] = biological target: CBF1-Myc (from CBF1-Myc^OE Arabidopsis plants)
Sequence of CBF1-Myc (from CBF1-Myc^OE Arabidopsis plants) (chain, as listed by the source): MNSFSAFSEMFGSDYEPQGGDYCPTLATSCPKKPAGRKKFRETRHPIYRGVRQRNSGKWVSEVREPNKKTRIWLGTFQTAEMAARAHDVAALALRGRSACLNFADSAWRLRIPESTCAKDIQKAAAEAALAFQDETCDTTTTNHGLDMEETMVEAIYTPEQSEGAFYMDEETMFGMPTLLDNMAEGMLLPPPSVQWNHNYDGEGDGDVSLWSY

Sequence of His-CBF1 (histidine-tagged C-repeat-binding transcription factor 1), recombinant (chain, as listed by the source): as above

Protein	EMSA: mobility shift of the biotin-labeled COR15a promoter probe with His-CBF1 [1]	dissociation of CBF1 oligomers into monomers (Trx system with NADPH, Trx reductase and 5 µM Trx-h2; non-reducing SDS-PAGE, western blot) [1]	cold-induced structural switching of CBF1-Myc oligomers in planta (non-reducing gel, CBF1-Myc^OE/Col-0 against CBF1-Myc^OE/trx-h2) [2]
Thioredoxin h2 (Trx-h2), purified recombinant protein (protein) MGGALSTVFGSGEDATAAGTESEPSRVLKFSSSARWQLHFNEIKESNKLLVVDFSASWCGPCRMIEPAIHAMADKFNDVDFVKLDVDELPDVAKEFNVTAMPTFVLVKRGKEIERIIGAKKDELEKKVSKLRA	Treatment with DTT or Trx-h2 ... induced a distinct mobility shift in the probe interacting with His-CBF1	reduced and dissociated CBF1 oligomers into monomers	
Trx-h2(C/S), redox-insensitive point mutant of Trx-h2, recombinant (protein) MGGALSTVFGSGEDATAAGTESEPSRVLKFSSSARWQLHFNEIKESNKLLVVDFSASWSGPSRMIEPAIHAMADKFNDVDFVKLDVDELPDVAKEFNVTAMPTFVLVKRGKEIERIIGAKKDELEKKVSKLRA	but not H2O2 or Trx-h2(C/S), induced a distinct mobility shift		
Trx-h2, endogenous protein in Arabidopsis plants (protein) GGALSTVFGSGEDATAAGTESEPSRVLKFSSSARWQLHFNEIKESNKLLVVDFSASWCGPCRMIEPAIHAMADKFNDVDFVKLDVDELPDVAKEFNVTAMPTFVLVKRGKEIERIIGAKKDELEKKVSKLRA			gradually dissociated into small oligomers and monomers by cold (lanes 2-4). By contrast, no structural change was detected in CBF1 extracted from CBF1-Myc^OE/trx-h2 plants
